B1: VHH2 (VHH)
VHH: QVQLVESGGGSVQPGGSLRLSCAASGSIVGHAVQAWYRQAPGKQRDLVAQLFDNGKTNIADSVKGRFTISGDNAKNTFYLQMNNLKPEDTAIYYCAILILPSMGVPPNIYEGQGTQVTVSS
notes: TEV-cleavable tag; source: E. coli BL21(DE3), purified (Ni-NTA, gel filtration)
B2: VHH4 (VHH)
VHH: EVQLVESGGGLVQAGDSLRLSCTASGRNFIIYTLAWFRQAPGKEREFVAGISWSGGSTKYADPVKGRFTISRDNAKNTVYLQMNSLHSDDTGVYYCGAQRGATIDLKYGMESWGKGTQVTVSS
notes: TEV-cleavable tag
B3: VHH9 (VHH)
VHH: QVQLVESGGKLVQAGGSLRLSCAASGRSIVPYAMGWFRQAPGKEREFVAVIDWSGFRTYYADSVKGRFTISRDNAKNTVYLEMSSLKPEDTAVYYCAQAGYGLGYRIHANEYHYWGQGTQVTVSS
notes: TEV-cleavable tag; source: E. coli BL21(DE3), soluble, purified (Ni-NTA, gel filtration)
B4: VHH10 (VHH)
VHH: EVQLVESGGGLVQAGDSLRLSCAASGRAFSGYAMAWFRQAPEKEREFVAAITWRGGTPYYAVRAKGRFTISRDSAKNTAYLEVNSLKPEDTATYYCAAPSLQVATMDVKDYAYWGQGTLVTVSS
notes: TEV-cleavable tag
B5: VHH13 (VHH)
VHH: EVQLVESGGGLVQPGGSLRLSCAASGSTFSINAMGWYRQAPGKQRELVAAISSGGSTNYADSVKGRFTISRDNAKNTVYLQMNSLKPEDTAVYYCNTINIGTFISLGGSPLGSWGQGTQVTVSS
notes: TEV-cleavable tag
B6: VHH14 (VHH)
VHH: EVQLVESGGGLVQAGDSLRLSCTASARTFIKYAMGWFRQAPGKEREFVAAISWSGSRTTYADSVKGRFTISRDNDKNTVYLQMNTLEPEDTAIYYCAKAKGGYHSSQYDYDYWGQGTQVTVSS
notes: TEV-cleavable tag
B7: VHH15 (VHH)
VHH: EVQLVESGGGLVQAGGSLRLSCAASGRTSSIYVMAWFRQAPGKERELVAAISTSGNTVYPNSVKGRFTISRDNAKSTVYLQMNSLKPEDTAVYFCNADRTTYSSGRYSSQDYWGQGTQVTVSS
notes: TEV-cleavable tag
B8: VHH16 (VHH)
VHH: QVQLVESGGGWVQTGGSLRLSCAASGSTFDIKRMAWYRQAPGKEREFVADIWSEGSTHYADSVKGRFTISRDSAKNTMYLQMNSLKPEDTAAYYCNVGNTWGQGTQVTVSS
notes: TEV-cleavable tag; CDR 1 and 2 identical to VHH18, CDR 3 distinct
B9: VHH17 (VHH)
VHH: EVQLVESGGGLVQAGGSLRLSCAASGRTFSAYAMGWFRQAPGKERELVAGISWSGGMTYYADSVKGRFTISRDNAKNMVYLQMNSLKAEDTAVYYCAGGFSAVVPDHPDEYHYWGQGTQVTVSS
notes: TEV-cleavable tag
B10: VHH18 (VHH)
VHH: EVQLVESGGGWVQTGGSLRLSCAASGSTFDIKRMAWYRQAPGKEREFVADIWSEGSTHYADSVKGRFTISRDSAKNTMYLYMNSLKPEDTAVYYCNVEYVLRTYWGQGTQVTVSS
notes: TEV-cleavable tag; CDR 1 and 2 identical to VHH16, CDR 3 distinct
B11: VHH19 (VHH)
VHH: EVQLVESGGGSVQAGASLRLSCAASGFPFSHYAIGWFRQAPGKEREFVTSIDRSGINTYYADSVKGRFTISRDNAKNAVSLQMNSLKPDDTAVYYCAAGPRLVTSPELYPYWGQGTQVTVSS
notes: TEV-cleavable tag
B12: VHH20 (VHH)
VHH: EVQLVESGGGSVQAGGSLRLSCVASGIAFSESPMAWYRQAPGRQREFVADVSADNKPYYRDTLKGRFTISRDNDKNSVYLQMNFLQPEDTAVYYCNALLLEAGTIKNYWGQGTQVTVSS
notes: TEV-cleavable tag
B13: VHH21 (VHH)
VHH: EVQLVESGGGLVQTGGSLRLSCAASGRTFDSYFMGWFRQAPGKEREFVAAISGSGSLTSYEDGVKGRFTISRDNAKNTVSLQMTNLKPEDTAVYYCASCLSCAFINGRQVDSRYYNYWGQGTQVTVSS
notes: TEV-cleavable tag; Two cysteines within CDR 3 form an additional disulfide bond (confirmed by mass spectrometry)
B14: VHH22 (VHH)
VHH: EVQLVESGGGLVQAGGSLKLSCAASGRTFSGNTMGWFRQAPGKERELVTVVSSGGSTYYSDSVKGRFTISRDNALNTVYLQMNSLKPEDTAVYYCAAASLISGLTTTRRLFDYWGQGTQVTVSS
notes: TEV-cleavable tag
B15: extracellular region of CD80 (residues 35-235) (domain or fragment, human, UniProt P33681 35-235, looked up)
chain: VIHVTKEVKEVATLSCGHNVSVEELAQTRIYWQKEKKMVLTMMSGDMNIWPEYKNRTIFDITNNLSIVILALRPSDEGTYECVVLKYEKDAFKREHLAEVTLSVKADFPTPSISDFEIPTSNIRRIICSTSGGFPEPHLSWLENGEELNAINTTVSQDPETELYAVSSKLDFNMTTNHSFMCLIKYGHLRVNQTFNWNTTK
notes: CD80 (Cluster of differentiation 80, B7-1), human; construct 1-235 with the native signal peptide; final purified protein holds residues 35 to 235 after signal peptide cleavage; Glycosylated form; also called B7-1; source: expiCHO cells with kifunensine, secreted, purified (Ni-NTA, gel filtration)
B16: VHH4 (VHH)
VHH: B2 VHH
notes: The His6 tag is TEV-cleavable; also called anti-PD-L1 VHH 4
B17: VHH9 (VHH)
VHH: B3 VHH
notes: The His6 tag is TEV-cleavable; also called anti-PD-L1 VHH 9; source: E. coli BL21(DE3), soluble expression, purified (Ni-NTA, gel filtration)
B18: VHH15 (VHH)
VHH: B7 VHH
notes: The His6 tag is TEV-cleavable; also called anti-PD-L1 VHH 15

Assays:
Conditions in all cases: both partners purified
[1] = target: T1, PD-L2-Fc (Generon) (Homo sapiens (assumed), UniProt Q9BQ51); assay: BLI; PD-L2-Fc (2 ug/ml) on Protein G biosensors; VHHs at 10 uM; 25 C
T1 construct: PD-L2 (programmed cell death 1 ligand 2), extracellular region; No catalogue number printed; also called extracellular region of PD-L2 with a Fc tag; source: bought: Generon

[2] = target: T2, PD-L1 D1D2 (residues 18-237) (human, UniProt Q9NZQ7); assay: BLI; biotinylated avitagged PD-1 (5 ug/ml) on streptavidin biosensors; 3 uM PD-L1 D1D2 alone or with 20 uM VHH; 25 C
T2 construct: PD-L1 (programmed death-ligand 1, B7-H1, CD274), human, extracellular region D1D2, residues 18-237; also called extracellular region of PD-L1

[3] = target: T3, PD-L1 D1 (residues 18-134) (human, UniProt Q9NZQ7 18-134); assay: NMR titration; chemical shift perturbation (minimal shift) mapping: labelled PD-L1 D1 free and with a 60% molar excess of CD80; 15N/1H TROSY; 25 C; 25 mM KH2PO4 pH 7.4, 25 mM NaCl, 10 uM EDTA
T3 construct: PD-L1 (programmed death-ligand 1, B7-H1, CD274), human, IgV-like domain D1, residues 18-134; Uniformly 15N/13C labelled for NMR; the sentence on constructs can be read as giving a C-terminal avitag to this construct too; also called PD-L D1

[4] = target: T4, PD-L1-Fc fusion protein (Homo sapiens, UniProt Q9NZQ7); assay: BLI; PD-L1-Fc (5 ug/ml) loaded on Protein G biosensors, VHH in solution (10 uM to 0.3 nM); Octet QKe, 25 °C, PBS pH 7.4, 0.01% Tween-20, 0.1% BSA; kinetic analysis, global model 'association kinetics' in Prism 9
T4 construct: PD-L1 (programmed cell death 1 ligand 1, B7-H1, CD274) part of a bought PD-L1-Fc fusion protein; Probably the extracellular region; Held on Protein G biosensors by the Fc; also called programmed death-ligand 1; B7-H1; source: bought: Invitrogen

[5] = target: T4, PD-L1-Fc fusion protein; assay: BLI; PD-L1-Fc (5 ug/ml) loaded on Protein G biosensors, VHH in solution (10 uM to 0.3 nM); Octet QKe, 25 °C, PBS pH 7.4, 0.01% Tween-20, 0.1% BSA; steady-state analysis of the maximum responses, one-site specific-binding model in Prism 9

T1 sequence (Q9BQ51 20-220): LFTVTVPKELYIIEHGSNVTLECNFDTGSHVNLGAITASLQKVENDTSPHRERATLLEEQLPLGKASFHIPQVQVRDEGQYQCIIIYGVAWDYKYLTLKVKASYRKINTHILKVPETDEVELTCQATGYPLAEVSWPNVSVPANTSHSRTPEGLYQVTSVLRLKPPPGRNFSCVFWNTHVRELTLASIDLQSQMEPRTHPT
T2 sequence (Q9NZQ7 18-237): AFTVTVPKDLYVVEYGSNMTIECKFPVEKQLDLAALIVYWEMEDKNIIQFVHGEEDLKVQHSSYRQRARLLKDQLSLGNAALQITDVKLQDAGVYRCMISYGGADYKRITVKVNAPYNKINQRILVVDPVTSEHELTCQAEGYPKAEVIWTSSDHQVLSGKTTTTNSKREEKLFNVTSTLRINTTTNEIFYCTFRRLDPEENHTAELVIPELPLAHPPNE
T4 sequence (Q9NZQ7 19-238): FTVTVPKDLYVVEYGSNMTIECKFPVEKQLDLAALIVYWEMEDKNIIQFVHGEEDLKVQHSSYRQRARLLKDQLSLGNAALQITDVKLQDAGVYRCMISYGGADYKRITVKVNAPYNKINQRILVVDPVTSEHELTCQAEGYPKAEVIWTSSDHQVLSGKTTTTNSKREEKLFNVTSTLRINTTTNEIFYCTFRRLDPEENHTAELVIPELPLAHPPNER
T3 sequence (Q9NZQ7 18-134): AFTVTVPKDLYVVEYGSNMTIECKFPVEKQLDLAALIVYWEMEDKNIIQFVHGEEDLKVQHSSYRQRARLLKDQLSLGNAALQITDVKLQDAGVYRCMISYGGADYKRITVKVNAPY

| Binder | binding result [1] | percent inhibition of PD-L1 D1D2 binding to PD-1 at 20 uM VHH [2] | also measured |
| --- | --- | --- | --- |
| B1 | no binding (tested: 10 μM) | > 90% |  |
| B2 | no binding (tested: 10 μM) | > 90% |  |
| B3 | no binding (tested: 10 μM) | > 90% |  |
| B4 | no binding (tested: 10 μM) | > 90% |  |
| B5 | no binding (tested: 10 μM) | > 90% |  |
| B6 | no binding (tested: 10 μM) | > 90% |  |
| B7 | no binding (tested: 10 μM) | > 90% |  |
| B8 | no binding (tested: 10 μM) | > 90% |  |
| B9 | no binding (tested: 10 μM) | > 90% |  |
| B10 | no binding (tested: 10 μM) | > 90% |  |
| B11 | no binding (tested: 10 μM) | > 90% |  |
| B12 | no binding (tested: 10 μM) | > 90% |  |
| B13 | no binding (tested: 10 μM) | > 90% |  |
| B14 | no binding (tested: 10 μM) | > 90% |  |
| B15 |  |  | binding result [3]: binds |
| B16 |  |  | Kd [4]: 48 nM; koff [4]: 0.029 s⁻¹; kon [4]: 590000 M⁻¹ s⁻¹; Kd [5]: 59 nM |
| B17 |  |  | Kd [5]: 0.7 nM |
| B18 |  |  | Kd [5]: 9.2 nM |

Source: PMC9811221 (The Journal of Biological Chemistry, 2022)
